Key:
[1] = target: human CD62L/L-selectin expressed on J.RT3-T3.5 cells (human) (UniProt P14151); experiment: flow cytometry, 50 nM antibody on J.RT3-T3.5 cells 48 hours after electroporation with SELL siRNA
E-selectin (CD62E, SELE) = target: T1, E-selectin (CD62E, SELE) (Homo sapiens, UniProt P16581 P16581:22-556); experiment: BLI; no noticeable binding up to 1000 nM CD62E; conditions: tags: recombinant human CD62E, ACROBiosystems; label: 5' 6-FAM or biotin (hexaethylene glycol spacer)
T1 sequence: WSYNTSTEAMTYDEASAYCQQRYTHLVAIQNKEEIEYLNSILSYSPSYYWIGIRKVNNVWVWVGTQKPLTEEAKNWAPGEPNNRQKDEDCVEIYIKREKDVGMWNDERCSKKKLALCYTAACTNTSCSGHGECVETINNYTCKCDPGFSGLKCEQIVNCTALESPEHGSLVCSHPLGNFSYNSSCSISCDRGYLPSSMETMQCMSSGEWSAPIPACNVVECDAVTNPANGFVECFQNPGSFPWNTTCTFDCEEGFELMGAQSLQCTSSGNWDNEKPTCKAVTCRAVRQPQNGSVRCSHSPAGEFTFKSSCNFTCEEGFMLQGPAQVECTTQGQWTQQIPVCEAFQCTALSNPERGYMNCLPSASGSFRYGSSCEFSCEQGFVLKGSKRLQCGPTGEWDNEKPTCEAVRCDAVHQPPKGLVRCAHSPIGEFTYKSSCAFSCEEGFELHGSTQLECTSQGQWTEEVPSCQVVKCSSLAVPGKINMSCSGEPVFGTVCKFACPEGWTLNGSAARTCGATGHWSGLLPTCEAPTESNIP
Experimental: (§1) Prior to running, Octet streptavidin (SA) biosensors (Sartorius of Göttingen, Germany) were pre-soaked in 200 μL diluent (WB supplemented with 1% BSA, 0.1 mg/mL yeast tRNA, 0.1 mg/mL salmon sperm DNA and 0.01% Tween-20). For BLI, the SA biosensors were first rinsed in 200 μL diluent for 100 sec to establish the first baseline. The rinsed sensors were transferred to wells containing 50 nM biotinylated aptamers in 200 μL diluent for aptamer immobilization onto the SA biosensors until a threshold of 0.5 nm is reached. Next, aptamer-immobilized SA biosensors were rinsed in 200 μL diluent for 100 sec to remove excess aptamers and for an additional 100 sec in 200 μL diluent to establish the second baseline. The sensors were then transferred to wells containing different concentrations of L-selectin in 200 μL diluent to allow aptamer association with CD62L (R&D Systems of Minneapolis, Minnesota), CD62P (ACROBiosystems of Newark, Delaware), or CD62E (ACROBiosystems). Finally, the sensors were transferred to wells containing 200 μL diluent to allow dissociation. […]
(§2) The binding affinity and kinetics of CD62LApt.52 to JRT.3-T3.5 cells and to recombinant human CD62L protein was characterized by flow cytometry and BLI, respectively. […] However, no noticeable binding of CD62LApt.52 to either CD62E or CD62P at up to 1000 nM was detected by BLI (FIGS. 15A, 15B).

[2] = target: T2, L-selectin (CD62L) on J.RT3-T3.5 cells (Homo sapiens, UniProt P14151 P14151:39-372); experiment: flow; DPBS Ca/Mg + 5 mM MgCl2, 25 mM glucose, BSA, 4 C; conditions: tags: endogenous, J.RT3-T3.5 human T-ALL line; label: 5' 6-FAM or biotin (hexaethylene glycol spacer)
T2 sequence: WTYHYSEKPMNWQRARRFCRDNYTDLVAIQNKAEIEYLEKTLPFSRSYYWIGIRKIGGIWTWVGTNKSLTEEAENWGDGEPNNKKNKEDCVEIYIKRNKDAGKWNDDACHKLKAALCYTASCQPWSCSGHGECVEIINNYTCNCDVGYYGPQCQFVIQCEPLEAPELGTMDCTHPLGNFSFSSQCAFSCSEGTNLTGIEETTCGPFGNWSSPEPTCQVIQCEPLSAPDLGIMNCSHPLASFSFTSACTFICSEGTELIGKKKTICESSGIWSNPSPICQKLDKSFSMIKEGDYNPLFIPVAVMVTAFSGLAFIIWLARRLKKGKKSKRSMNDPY

P-selectin (CD62P, SELP) = P-selectin (CD62P, SELP) (Homo sapiens, UniProt P16109 P16109:42-771); experiment: BLI; no noticeable binding up to 1000 nM CD62P; conditions: tags: recombinant human CD62P, ACROBiosystems; label: 5' 6-FAM or biotin (hexaethylene glycol spacer)
Experimental: as §1, §2

L-selectin (CD62L, SELL) [3] = target: T3, L-selectin (CD62L, SELL) (Homo sapiens, UniProt P14151 P14151:39-332); experiment: BLI; +/-0.045; R2 0.9959; aptamer immobilised; conditions: tags: recombinant human CD62L, R&D Systems; label: 5' 6-FAM or biotin (hexaethylene glycol spacer)
T3 sequence: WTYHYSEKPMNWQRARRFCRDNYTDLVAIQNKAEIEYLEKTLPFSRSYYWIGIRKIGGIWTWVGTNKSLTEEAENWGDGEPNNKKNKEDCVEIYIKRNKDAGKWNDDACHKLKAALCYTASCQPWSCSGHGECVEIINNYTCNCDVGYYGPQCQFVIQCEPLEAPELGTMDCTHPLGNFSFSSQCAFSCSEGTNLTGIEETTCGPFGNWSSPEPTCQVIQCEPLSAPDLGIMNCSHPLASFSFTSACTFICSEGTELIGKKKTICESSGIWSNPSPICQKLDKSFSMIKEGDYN
Experimental: as §1, §2

[4] = target: T2, L-selectin (CD62L) on J.RT3-T3.5 cells; experiment: flow; stated as sub-nanomolar affinity; conditions: tags: endogenous, J.RT3-T3.5 human T-ALL line; label: 5' 6-FAM, Cy5 or biotin (hexaethylene glycol spacer)
[5] = target: T4, L-selectin (CD62L) on primary CD4+ T cells (Homo sapiens, UniProt P14151 P14151:39-372); experiment: flow; apparent KD +/-0.033; cryopreserved CD4+ T cells used right after thaw; DPBS Ca/Mg + 5 mM MgCl2, 4 C; conditions: tags: endogenous, label: 5' 6-FAM, Cy5 or biotin (hexaethylene glycol spacer)
T4 sequence: T2 sequence

L-selectin (CD62L, SELL) [6] = target: T3, L-selectin (CD62L, SELL); experiment: BLI; +/-0.203; 1:1 fit poor (R2 0.9029); aptamer immobilised; DPBS Ca/Mg + 5 mM MgCl2, 1% BSA, tRNA, salmon sperm DNA, Tween-20; conditions: tags: recombinant human CD62L, R&D Systems; label: 5' 6-FAM, Cy5 or biotin (hexaethylene glycol spacer)
Experimental: as §1, with “baseline.” for “baseline. The sensors were then transferred to wells containing different concentrations of L-selectin in 200 μL diluent to allow aptamer association with CD62L (R&D Systems of Minneapolis, Minnesota), CD62P (ACROBiosystems of Newark, Delaware), or CD62E (ACROBiosystems). Finally, the sensors were transferred to wells containing 200 μL diluent to allow dissociation.”
To further validate A1 binding to CD62L, the expression of CD62L was knocked down in J.RT3-T3.5 cells with siRNA duplexes targeting the SELL gene, which encodes CD62L, and compared aptamer and antibody binding to J.RT3-T3.5 cells transfected with the SELL siRNA versus a control siRNA. […] The protein was serially diluted, and the association and dissociation kinetics of biotinylated CD62LApt.88 immobilized on streptavidin tips was measured. The dissociation constants (KD) were calculated by performing a global fit on the curves using a 1:1 model.

[7] = target: T4, L-selectin (CD62L) on primary CD4+ T …; experiment: flow; apparent KD +/-0.086; CD4+ T cells cultured in RPMI + 10% FBS; conditions: tags: endogenous, label: 5' 6-FAM, Cy5 or biotin (hexaethylene glycol spacer)
L-selectin (CD62L, SELL) [8] = target: T3, L-selectin (CD62L, SELL); experiment: BLI; +/-0.125; R2 0.9898; aptamer immobilised; conditions: tags: recombinant human CD62L, R&D Systems; label: 5' biotin
Experimental: Prior to running, Octet streptavidin (SA) biosensors (Sartorius of Göttingen, Germany) were pre-soaked in 200 μL diluent (WB supplemented with 1% BSA, 0.1 mg/mL yeast tRNA, 0.1 mg/mL salmon sperm DNA and 0.01% Tween-20). For BLI, the SA biosensors were first rinsed in 200 μL diluent for 100 sec to establish the first baseline. The rinsed sensors were transferred to wells containing 50 nM biotinylated aptamers in 200 μL diluent for aptamer immobilization onto the SA biosensors until a threshold of 0.5 nm is reached. Next, aptamer-immobilized SA biosensors were rinsed in 200 μL diluent for 100 sec to remove excess aptamers and for an additional 100 sec in 200 μL diluent to establish the second baseline. The sensors were then transferred to wells containing different concentrations of L-selectin in 200 μL diluent to allow aptamer association with CD62L (R&D Systems of Minneapolis, Minnesota), CD62P (ACROBiosystems of Newark, Delaware), or CD62E (ACROBiosystems). Finally, the sensors were transferred to wells containing 200 μL diluent to allow dissociation. The association and dissociation durations are indicated on the BLI curves.

Chain of P-selectin (CD62P, SELP) (P16109 42-771, one chain of several): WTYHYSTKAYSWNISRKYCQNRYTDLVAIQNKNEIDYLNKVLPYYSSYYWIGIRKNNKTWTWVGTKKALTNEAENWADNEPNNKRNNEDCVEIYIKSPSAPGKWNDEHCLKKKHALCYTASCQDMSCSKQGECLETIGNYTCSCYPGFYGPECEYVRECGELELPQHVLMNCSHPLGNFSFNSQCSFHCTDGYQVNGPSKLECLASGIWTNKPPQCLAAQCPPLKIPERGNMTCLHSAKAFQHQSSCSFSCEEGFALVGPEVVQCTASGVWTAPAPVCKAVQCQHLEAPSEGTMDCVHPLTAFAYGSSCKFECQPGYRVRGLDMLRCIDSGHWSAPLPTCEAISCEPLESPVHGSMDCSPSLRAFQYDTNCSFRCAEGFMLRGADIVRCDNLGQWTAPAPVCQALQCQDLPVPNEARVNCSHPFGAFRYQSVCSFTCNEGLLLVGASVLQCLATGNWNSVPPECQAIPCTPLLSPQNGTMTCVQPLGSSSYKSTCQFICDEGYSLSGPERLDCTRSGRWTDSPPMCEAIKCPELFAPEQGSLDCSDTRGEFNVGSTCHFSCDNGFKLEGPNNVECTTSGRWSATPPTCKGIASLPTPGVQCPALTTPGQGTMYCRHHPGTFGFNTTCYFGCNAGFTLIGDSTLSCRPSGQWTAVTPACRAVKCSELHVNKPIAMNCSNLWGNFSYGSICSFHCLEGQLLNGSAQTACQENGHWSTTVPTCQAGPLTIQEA

## Alexa Fluor 488 anti-human CD62L monoclonal antibody, clone DREG-56 (BioLegend)
[1]
  relative antibody binding after CD62L siRNA knockdown (vs control siRNA): 17%

B1: CD62LApt.52 (ssDNA)
DNA: TAGTCAAGGCGATAGACGAAAAACATTGTTTTCCTGGAAGGCCCAGAATCTG
E-selectin (CD62E, SELE)
  binding result: no binding
[2]
  Kd: 0.19 nM
P-selectin (CD62P, SELP)
  binding result: no binding
L-selectin (CD62L, SELL) [3]
  Kd: 5.3 nM

B2: CD62LApt.88 (A1, L-SA.88) (ssDNA)
DNA: ATCCAGAGTGACGCAGCATAGTCAAGGCGATAGACGAAAAACATTGTTTTCCTGGAAGGCCCAGAATCTGTGGACACGGTGGCTTAGT
[4]
  Kd: < 1 nM
[5]
  Kd: 0.04 nM
L-selectin (CD62L, SELL) [6]
  Kd: 4.91 nM
[7]
  Kd: 0.31 nM

B3: CD62LApt.61 (ssDNA)
DNA: AGACCCGACGCAGCATAGTCAAGGCGATAGACGAAAAACATTGTTTTCCTGGAAGGCCCAGAATCTGCG
L-selectin (CD62L, SELL) [8]
  Kd: 5.81 nM

Reference: patent US20260227398A1, “CD62L (L-SELECTIN) APTAMER AND ITS APPLICATION FOR T CELL ISOLATION” (University of Washington, published 2026)
